From patent US20230080534A1 (SHANGHAI BIOTROY BIOTECHNIQUE, published 2023)
No end group written: not given here.

T1: SEMG2(497-509) polypeptide QIEKLVEGKSQIQ (human)
T1 peptide: QIEKLVEGKSQIQ

T2: human SEMG2 full-length protein (human, UniProt Q02383 24-582, limits assumed)
T2 construct: also called SEMG2 protein; semenogelin 2
T2 sequence: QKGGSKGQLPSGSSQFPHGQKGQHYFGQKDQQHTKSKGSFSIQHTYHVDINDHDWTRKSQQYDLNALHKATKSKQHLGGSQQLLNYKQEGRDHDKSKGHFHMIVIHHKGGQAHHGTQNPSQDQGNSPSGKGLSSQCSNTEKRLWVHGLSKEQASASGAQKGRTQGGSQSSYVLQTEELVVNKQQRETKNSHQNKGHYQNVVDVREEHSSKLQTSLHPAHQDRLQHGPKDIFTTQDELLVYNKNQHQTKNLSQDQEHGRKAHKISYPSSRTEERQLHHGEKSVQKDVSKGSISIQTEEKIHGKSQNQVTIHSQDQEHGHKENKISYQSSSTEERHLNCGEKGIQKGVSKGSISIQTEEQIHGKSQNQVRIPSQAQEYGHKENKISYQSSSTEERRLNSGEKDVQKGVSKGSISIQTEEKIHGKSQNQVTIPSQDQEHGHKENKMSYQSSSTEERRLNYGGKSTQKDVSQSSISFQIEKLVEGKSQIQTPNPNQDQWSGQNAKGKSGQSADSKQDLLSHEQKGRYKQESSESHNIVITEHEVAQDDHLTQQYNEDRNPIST

T3: QIEKLVEGKSQAQ (not fully specified)
T3 construct: member of the group m41; the text speaks of glycine substitution, the sheet prints alanine
T3 peptide: QIEKLVEGKSQAQ

T4: QIEKLVEGKSAIQ (not fully specified)
T4 construct: alanine at this position
T4 peptide: QIEKLVEGKSAIQ

T5: QIEKLVAGKSQIQ (not fully specified)
T5 construct: member of the group m41; the text speaks of glycine substitution, the sheet prints alanine
T5 peptide: QIEKLVAGKSQIQ

T6: QIAKLVEGKSQIQ (not fully specified)
T6 construct: member of the group m41; the text speaks of glycine substitution, the sheet prints alanine
T6 peptide: QIAKLVEGKSQIQ

T7: QIEKLVEAKSQIQ
T7 construct: member of the group m41; position 504 is glycine in SEMG2 and the sheet prints alanine there
T7 peptide: QIEKLVEAKSQIQ

T8: SEMG2(354-403) fragment (human)
T8 peptide: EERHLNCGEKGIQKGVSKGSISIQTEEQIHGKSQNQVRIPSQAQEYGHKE

T9: AIEKLVEGKSQIQ (not fully specified)
T9 construct: member of the group m41; the text speaks of glycine substitution, the sheet prints alanine
T9 peptide: AIEKLVEGKSQIQ

T10: QIEKLVEGKAQIQ (not fully specified)
T10 construct: alanine at this position
T10 peptide: QIEKLVEGKAQIQ

T11: SEMG2(442-453) fragment (human)
T11 peptide: IHGKSQNQVTIP

T12: QIEKAVEGKSQIQ (not fully specified)
T12 construct: alanine at this position
T12 peptide: QIEKAVEGKSQIQ

T13: QIEKLAEGKSQIQ (not fully specified)
T13 construct: member of the group m41; the text speaks of glycine substitution, the sheet prints alanine
T13 peptide: QIEKLAEGKSQIQ

T14: QIEKLVEGASQIQ (not fully specified)
T14 construct: member of the group m41; the text speaks of glycine substitution, the sheet prints alanine
T14 peptide: QIEKLVEGASQIQ

T15: SEMG2(563-574) fragment (human)
T15 peptide: VAQDDHLTQQYN

T16: QIEALVEGKSQIQ (not fully specified)
T16 construct: member of the group m41; the text speaks of glycine substitution, the sheet prints alanine
T16 peptide: QIEALVEGKSQIQ

T17: QIEKLVEGKSQIA (not fully specified)
T17 construct: alanine at this position
T17 peptide: QIEKLVEGKSQIA

T18: QAEKLVEGKSQIQ (not fully specified)
T18 construct: member of the group m41; the text speaks of glycine substitution, the sheet prints alanine
T18 peptide: QAEKLVEGKSQIQ


Key:
[1] = target: T1, SEMG2(497-509) polypeptide QIEKLVEGKSQIQ; assay: ELISA, immobilized peptide QIEKLVEGKSQIQ
Text: (§1) FIG. 20 depicts the value detected by ELISA, i.e., OD₄₅₀ absorbance. […] This experiment is used to determine the precise amino acid epitopes that different monoclonal antibodies bind to, and the relative importance of each amino acid to the binding antibody.

[2] = target: T2, human SEMG2 full-length protein; assay: ELISA, immobilized antigen SEMG2 (1-582)
Text: (§2) To clearly distinguish the binding epitopes of blocking antibodies (i.e., antibodies that can inhibit the binding between SEMG2 and CD27) and non-blocking antibodies, a corresponding ELISA analysis method was established. […] Anti-mouse or anti-rabbit secondary antibodies were then used to detect the corresponding bound antibodies.

QIEKLVEGKSQAQ = target: T3, QIEKLVEGKSQAQ; assay: ELISA, immobilized peptide QIEKLVEGKSQAQ
Text: as §1

QIEKLVEGKSAIQ = target: T4, QIEKLVEGKSAIQ; assay: ELISA, immobilized peptide QIEKLVEGKSAIQ
Text: as §1

[3] = target: T2, human SEMG2 full-length protein; assay: biolayer interferometry (ForteBio Blitz or Gator)
Protocol: The equilibrium dissociation constant (KD) of the antibody of the present invention binding to human SEMG2 was determined by biolayer interferometry (ForteBio Bltz or Gator instrument). […] 100 μl of SD buffer, antibody and SEMG2 were added to a 96-well black polystyrene half area microplate, respectively. Select the sensor location based on the sample location layout. KD values were analyzed using molecular interaction analysis software. In the experiments of the assays, the affinity constants of murine monoclonal antibodies and human antibodies H88-67, H88-93 and H88-96 are shown in Table 8, and the affinity and dissociation curves of SEMG2 and corresponding proteins are shown in FIG. 25.

QIEKLVAGKSQIQ = target: T5, QIEKLVAGKSQIQ; assay: ELISA, immobilized peptide QIEKLVAGKSQIQ
Text: as §1
To further precisely define the exact epitopes (specific to the level of single amino acid) to which blocking antibodies MM02, MM05, MM07, MM08, MM13, MM14 bind, corresponding ELISA analysis method was established. […] Anti-mouse or anti-rabbit secondary antibodies were then used to detect the corresponding bound antibodies.

QIAKLVEGKSQIQ = target: T6, QIAKLVEGKSQIQ; assay: ELISA, immobilized peptide QIAKLVEGKSQIQ
[4] = target: T1, SEMG2(497-509) polypeptide QIEKLVEGKSQIQ; assay: ELISA, immobilized antigen SEMG2 (497-509)
Text: as §2

QIEKLVEAKSQIQ = target: T7, QIEKLVEAKSQIQ; assay: ELISA, immobilized peptide QIEKLVEAKSQIQ
Text: as §1

[5] = target: T2, human SEMG2 full-length protein; assay: ELISA, plate coated with SEMG2 protein, anti-mouse secondary antibody; the EC50 table prints no unit, the axis is log (antibody concentration, nM)
SEMG2(354-403) fragment = target: T8, SEMG2(354-403) fragment; assay: ELISA, immobilized antigen SEMG2 (354-403)
Text: as §2

AIEKLVEGKSQIQ = target: T9, AIEKLVEGKSQIQ; assay: ELISA, immobilized peptide AIEKLVEGKSQIQ
Text: as §1

QIEKLVEGKAQIQ = target: T10, QIEKLVEGKAQIQ; assay: ELISA, immobilized peptide QIEKLVEGKAQIQ
Text: as §1

SEMG2(442-453) fragment = target: T11, SEMG2(442-453) fragment; assay: ELISA, immobilized antigen SEMG2 (442-453)
Text: as §2

QIEKAVEGKSQIQ = target: T12, QIEKAVEGKSQIQ; assay: ELISA, immobilized peptide QIEKAVEGKSQIQ
Text: as §1

QIEKLAEGKSQIQ = target: T13, QIEKLAEGKSQIQ; assay: ELISA, immobilized peptide QIEKLAEGKSQIQ
Text: as §1

QIEKLVEGASQIQ = target: T14, QIEKLVEGASQIQ; assay: ELISA, immobilized peptide QIEKLVEGASQIQ
Text: as §1

SEMG2(563-574) fragment = target: T15, SEMG2(563-574) fragment; assay: ELISA, immobilized antigen SEMG2 (563-574)
Text: as §2

QIEALVEGKSQIQ = target: T16, QIEALVEGKSQIQ; assay: ELISA, immobilized peptide QIEALVEGKSQIQ
Text: as §1

QIEKLVEGKSQIA = target: T17, QIEKLVEGKSQIA; assay: ELISA, immobilized peptide QIEKLVEGKSQIA
Text: as §1

QAEKLVEGKSQIQ = target: T18, QAEKLVEGKSQIQ; assay: ELISA, immobilized peptide QAEKLVEGKSQIQ
Text: as §1

| OD450 absorbance [1] | A450 absorbance [2] | OD450 absorbance (QIEKLVEGKSQAQ) | OD450 absorbance (QIEKLVEGKSAIQ) | Kd [3] [nM] | OD450 absorbance (QIEKLVAGKSQIQ) | OD450 absorbance (QIAKLVEGKSQIQ) | A450 absorbance [4] | OD450 absorbance (QIEKLVEAKSQIQ) | EC50 [5] [nM] | A450 absorbance (SEMG2(354-403) fragment) | binding result (SEMG2(354-403) fragment) | OD450 absorbance (AIEKLVEGKSQIQ) | OD450 absorbance (QIEKLVEGKAQIQ) | A450 absorbance (SEMG2(442-453) fragment) | binding result (SEMG2(442-453) fragment) | OD450 absorbance (QIEKAVEGKSQIQ) | OD450 absorbance (QIEKLAEGKSQIQ) | OD450 absorbance (QIEKLVEGASQIQ) | A450 absorbance (SEMG2(563-574) fragment) | Binder | other results |
| --- | --- | --- | --- | --- | --- | --- | --- | --- | --- | --- | --- | --- | --- | --- | --- | --- | --- | --- | --- | --- | --- |
| 1.26 | 1.13 | 0.798 | 1.22 | 2.34 | 0.566 | 0.544 | 1.14 | 0.824 | 0.418 | 0.012 | no binding | 0.942 | 0.023 | 0.008 | no binding | 0.213 | 0.509 | 0.939 | 0.001 | MM08 (antibody, IgG1, V domains shown) VH: QVQLQQPGAELVRPGASVKLSCKSSDYTFTRYWMNWVKQRPGQGLEWIGMIDPSDSETHHNQMFKDKATLTVDKSSSTAYMQLSSLTSEDSAVYFCARYLGGKEGSFDYWGQGTTLTVSS VL: DIVLTQSPSSLAVSAGERVTMSCKSSQSLFNSRTRKNYLAWYQQKPGQSPKLLLYWASTRESGVPDRFTGSGSGTDFTLTISSVKTEDLAVYYCKQSYELPWTFGGGTKLEMKR | binding result (SEMG2(563-574) fragment): no binding; OD450 absorbance (QIEALVEGKSQIQ): 0.789; OD450 absorbance (QIEKLVEGKSQIA): 1.19; OD450 absorbance (QAEKLVEGKSQIQ): 0.671 |
|  |  |  |  |  |  |  |  |  | 0.444 |  |  |  |  |  |  |  |  |  |  | MM15 (antibody, IgG2a, V domains shown) VH: QVQLKESGPGLVAPSQSLSITCTVSGFSLTRYGVSWVRQTPGKGLEWLGIIWGDGSTNYHSALISRLSISKDNSKSQVFLKLNSLQTDDTATYYCAKQERFSDGYYDGFAYWGQGTLVTVSA VL: QIVLTQSPAIMSASPGEKVTITCSASSSVSYMHWFQQKPGTSPKLWIYSTSNLASGVPARFSGSGSGTSYSLTISRMEAEDAATYYCQQRSSYPFTFGSGTKLEIKR |  |
| 1.19 | 1.14 | 0.509 | 1.16 | 1.82 | 0.899 | 0.48 | 1.14 | 0.58 |  | 0.001 | no binding | 0.919 | 0.296 | 0.011 | no binding | 0.123 | 0.814 | 0.79 | 0.012 | MM07 (antibody, V domains shown, The VH and VL begin with what look like leader peptides (MDWLW..., MVSSAQ...)) VH: QIQLVQSGPELKKPGETVRISCKASGYTLTTAGMQWVQKIPGKGLKWIGWINTHSGVAEFAEDFKGRFAFSLETSANTAYLQIRNLKNEDTATYFCARLGLLGYWGQGTTLTVSS VL: DILLTQSPAILSVSPGERVSFSCRASQSIGTTIHWYQQRTNGSPRLLIKYASESISGIPSRFSGSGSGTDFTLSINSVESEDIADYYCQQSNSWPWTFGGGTKLEIKR | binding result (SEMG2(563-574) fragment): no binding; OD450 absorbance (QIEALVEGKSQIQ): 0.822; OD450 absorbance (QIEKLVEGKSQIA): 1.26; OD450 absorbance (QAEKLVEGKSQIQ): 0.833 |
